Results published in the supplement of paper PMC10567573.

B1: ZNF24 (parent)
chain: YGETCFPKGRFERKRNPSRKKQHI

Variants of: B1
Test: protein stability index of a GFP-peptide fusion (GPS, HEK-293T) (PSI 1-6); higher = more stable
Conditions: c terminus: a fixed tail appended
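Further: lentivirally expressed fusions sorted by FACS into six bins by GFP to DsRed ratio, PSI derived from sequencing read proportions per bin multiplied by bin number.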

For CGETCFPKGRFERKRNPSRKKQHI, which protein stability index is on record?
The protein stability index was 3.45.

With EGETCFPKGRFERKRNPSRKKQHI as the variant, how does the protein stability index read?
The protein stability index was 4.46.

For NGETCFPKGRFERKRNPSRKKQHI, which protein stability index is on record?
The protein stability index was 4.4.

For YSETCFPKGRFERKRNPSRKKQHI, which protein stability index is on record?
Its protein stability index is 3.4.

With YEETCFPKGRFERKRNPSRKKQHI as the variant, how does the protein stability index read?
Its protein stability index is 4.37.

For YFETCFPKGRFERKRNPSRKKQHI, which protein stability index is on record?
Its protein stability index is 2.51.

Which protein stability index does the source give for YTETCFPKGRFERKRNPSRKKQHI here?
Its protein stability index is 2.33.

Which protein stability index does the source give for YRETCFPKGRFERKRNPSRKKQHI here?
Its protein stability index is 3.41.

Which protein stability index does the source give for YCETCFPKGRFERKRNPSRKKQHI here?
The protein stability index was 2.1.

For YQETCFPKGRFERKRNPSRKKQHI, which protein stability index is on record?
The protein stability index was 3.44.

For YGEVCFPKGRFERKRNPSRKKQHI, which protein stability index is on record?
The protein stability index was 3.38.

With YGERCFPKGRFERKRNPSRKKQHI as the variant, how does the protein stability index read?
The protein stability index was 3.37.

Which protein stability index does the source give for YGELCFPKGRFERKRNPSRKKQHI here?
Its protein stability index is 2.45.

Which protein stability index does the source give for YGEGCFPKGRFERKRNPSRKKQHI here?
The protein stability index was 2.33.

With YGEACFPKGRFERKRNPSRKKQHI as the variant, how does the protein stability index read?
The protein stability index was 2.96.

For YGEDCFPKGRFERKRNPSRKKQHI, which protein stability index is on record?
Its protein stability index is 3.14.

With YGEICFPKGRFERKRNPSRKKQHI as the variant, how does the protein stability index read?
The protein stability index was 3.04.

For YGETCFPKGRFEMKRNPSRKKQHI, which protein stability index is on record?
Its protein stability index is 2.15.

Which protein stability index does the source give for YGETCFPKGRFEFKRNPSRKKQHI here?
The protein stability index was 2.43.

With YGETCFPKGRFESKRNPSRKKQHI as the variant, how does the protein stability index read?
Its protein stability index is 3.14.

With YGETCFPKGRFEQKRNPSRKKQHI as the variant, how does the protein stability index read?
The protein stability index was 2.61.

Which protein stability index does the source give for YGETCFPKGRFENKRNPSRKKQHI here?
Its protein stability index is 2.87.

Which protein stability index does the source give for YGETCFPKGRFERKRNPSRKKQSI here?
Its protein stability index is 2.56.

With YGETCFPKGRFERKRNPSRKKQAI as the variant, how does the protein stability index read?
Its protein stability index is 2.42.

Which protein stability index does the source give for YGETCFPKGRFERKRNPSRKKQMI here?
Its protein stability index is 3.14.

For YGETCFPKGRFERKRNPSRKKQKI, which protein stability index is on record?
The protein stability index was 3.22.

Which protein stability index does the source give for YGETCFPKGRFERKRNPSRKKQFI here?
The protein stability index was 2.95.

With YGETCFPKGRFERKRNPSRKKQDI as the variant, how does the protein stability index read?
The protein stability index was 2.42.

For YGETCFPYGRFERKRNPSRKKQHI, which protein stability index is on record?
Its protein stability index is 2.74.

Which protein stability index does the source give for YGETCFPRGRFERKRNPSRKKQHI here?
The protein stability index was 2.88.

With YGETCFPIGRFERKRNPSRKKQHI as the variant, how does the protein stability index read?
The protein stability index was 2.49.

For YGETCFPQGRFERKRNPSRKKQHI, which protein stability index is on record?
The protein stability index was 2.13.

With YGETCFPLGRFERKRNPSRKKQHI as the variant, how does the protein stability index read?
The protein stability index was 2.07.

For YGETCFPDGRFERKRNPSRKKQHI, which protein stability index is on record?
The protein stability index was 3.56.

With YGWTCFPKGRFERKRNPSRKKQHI as the variant, how does the protein stability index read?
The protein stability index was 2.26.

Which protein stability index does the source give for YGHTCFPKGRFERKRNPSRKKQHI here?
Its protein stability index is 2.56.

With YGFTCFPKGRFERKRNPSRKKQHI as the variant, how does the protein stability index read?
Its protein stability index is 2.71.

For YGETCFPKGRFERKCNPSRKKQHI, which protein stability index is on record?
Its protein stability index is 2.65.

For YGETCFPKGRFERKMNPSRKKQHI, which protein stability index is on record?
Its protein stability index is 3.17.

Which protein stability index does the source give for YGETCFPKGRFERKNNPSRKKQHI here?
The protein stability index was 3.2.

With YGETCFPKGRFERKWNPSRKKQHI as the variant, how does the protein stability index read?
The protein stability index was 2.76.

With YGETCFPKGRFERKTNPSRKKQHI as the variant, how does the protein stability index read?
Its protein stability index is 2.46.

For YGETCFPKGRFERKINPSRKKQHI, which protein stability index is on record?
The protein stability index was 2.28.

For YGETCFPKGRFERKRNVSRKKQHI, which protein stability index is on record?
The protein stability index was 2.25.

With YGETCFPKGRFERKRNRSRKKQHI as the variant, how does the protein stability index read?
The protein stability index was 2.89.

For YGETCFPKGRFERKRNFSRKKQHI, which protein stability index is on record?
The protein stability index was 2.78.

For YGETEFPKGRFERKRNPSRKKQHI, which protein stability index is on record?
Its protein stability index is 3.15.

Which protein stability index does the source give for YGETVFPKGRFERKRNPSRKKQHI here?
The protein stability index was 3.17.

With YGETYFPKGRFERKRNPSRKKQHI as the variant, how does the protein stability index read?
The protein stability index was 1.95.

For YGETLFPKGRFERKRNPSRKKQHI, which protein stability index is on record?
The protein stability index was 3.05.

With YGETIFPKGRFERKRNPSRKKQHI as the variant, how does the protein stability index read?
Its protein stability index is 3.16.

With YGETTFPKGRFERKRNPSRKKQHI as the variant, how does the protein stability index read?
The protein stability index was 2.47.

Which protein stability index does the source give for YGETKFPKGRFERKRNPSRKKQHI here?
The protein stability index was 4.01.

Which protein stability index does the source give for YGETRFPKGRFERKRNPSRKKQHI here?
Its protein stability index is 3.29.

With YGETWFPKGRFERKRNPSRKKQHI as the variant, how does the protein stability index read?
The protein stability index was 2.53.

For YGETCFWKGRFERKRNPSRKKQHI, which protein stability index is on record?
The protein stability index was 2.57.

Which protein stability index does the source give for YGETCFYKGRFERKRNPSRKKQHI here?
The protein stability index was 1.76.

Which protein stability index does the source give for YGETCFAKGRFERKRNPSRKKQHI here?
Its protein stability index is 2.77.

For YGETCFIKGRFERKRNPSRKKQHI, which protein stability index is on record?
The protein stability index was 2.5.

For YGETCFEKGRFERKRNPSRKKQHI, which protein stability index is on record?
The protein stability index was 3.63.

With YGETCFGKGRFERKRNPSRKKQHI as the variant, how does the protein stability index read?
Its protein stability index is 2.82.

For YGETCFHKGRFERKRNPSRKKQHI, which protein stability index is on record?
The protein stability index was 2.43.

Which protein stability index does the source give for YGETCFRKGRFERKRNPSRKKQHI here?
The protein stability index was 2.93.

Which protein stability index does the source give for YGETCFPKGRFERKRAPSRKKQHI here?
Its protein stability index is 2.5.

Which protein stability index does the source give for YGETCFPKGRFERKRWPSRKKQHI here?
Its protein stability index is 2.21.

For YGETCFPKGRFERKRDPSRKKQHI, which protein stability index is on record?
The protein stability index was 2.15.

For YGETCFPKGRFERKRGPSRKKQHI, which protein stability index is on record?
Its protein stability index is 2.5.

With YGETCFPKGRFERKRMPSRKKQHI as the variant, how does the protein stability index read?
The protein stability index was 2.71.

For YGETCFPKGRFERKRCPSRKKQHI, which protein stability index is on record?
The protein stability index was 2.14.

For YGETCFPKGRFERKRTPSRKKQHI, which protein stability index is on record?
The protein stability index was 2.89.

With YGETCFPKGRFERKRYPSRKKQHI as the variant, how does the protein stability index read?
Its protein stability index is 2.82.

For YGETCFPKGRFERKREPSRKKQHI, which protein stability index is on record?
Its protein stability index is 2.89.

Which protein stability index does the source give for YGETCFPKGFFERKRNPSRKKQHI here?
Its protein stability index is 2.83.

With YGETCFPKGQFERKRNPSRKKQHI as the variant, how does the protein stability index read?
Its protein stability index is 3.38.

Which protein stability index does the source give for YGETCFPKGMFERKRNPSRKKQHI here?
Its protein stability index is 2.9.

For YGETCFPKGKFERKRNPSRKKQHI, which protein stability index is on record?
The protein stability index was 2.71.

Which protein stability index does the source give for YGETCFPKGWFERKRNPSRKKQHI here?
The protein stability index was 1.71.

Which protein stability index does the source give for YGETCFPKGPFERKRNPSRKKQHI here?
The protein stability index was 2.56.

For YGETCFPKGLFERKRNPSRKKQHI, which protein stability index is on record?
Its protein stability index is 2.67.

With YGETCFPKGYFERKRNPSRKKQHI as the variant, how does the protein stability index read?
Its protein stability index is 2.72.

With YGETCFPKGIFERKRNPSRKKQHI as the variant, how does the protein stability index read?
Its protein stability index is 2.92.

For YGETCFPKGRFERKRNPSRKLQHI, which protein stability index is on record?
The protein stability index was 1.95.

For YGETCFPKGRFERKRNPSRKSQHI, which protein stability index is on record?
Its protein stability index is 3.05.

For YGETCFPKGRFERKRNPSRKDQHI, which protein stability index is on record?
Its protein stability index is 3.11.

For YGETCFPKGRFERKRNPSRKIQHI, which protein stability index is on record?
Its protein stability index is 2.38.

With YGETCFPKGRFERKRNPSRKGQHI as the variant, how does the protein stability index read?
The protein stability index was 3.16.

Which protein stability index does the source give for YGETCFPKGRFERKRNPSRKHQHI here?
Its protein stability index is 2.73.

With YGETCFPKGRFERKRNPSRKCQHI as the variant, how does the protein stability index read?
The protein stability index was 2.45.

Which protein stability index does the source give for YGETCFPKGRFMRKRNPSRKKQHI here?
Its protein stability index is 1.87.

With YGETCFPKGRFWRKRNPSRKKQHI as the variant, how does the protein stability index read?
The protein stability index was 2.3.

With YGETCFPKGRFHRKRNPSRKKQHI as the variant, how does the protein stability index read?
The protein stability index was 3.09.

With YGETCFPKGRFNRKRNPSRKKQHI as the variant, how does the protein stability index read?
Its protein stability index is 3.1.

For YGETCFPKGRFTRKRNPSRKKQHI, which protein stability index is on record?
Its protein stability index is 3.16.

Which protein stability index does the source give for YGETCFPKGRFCRKRNPSRKKQHI here?
The protein stability index was 2.8.
